# Source: patent US11912794B2, “Modulation of structured polypeptide specificity” (BicycleRD Limited, priority 2011, dated 2024)
# Numbered stars: 1 amine (or outer) side, 2 acyl side, 3 side chain; on linkers, the order of the positions; unused ones are H or OH. Bridge positions count the residues as written; N and C are the ends. Peptide text beside a SMILES is read from it. TBMB = c1c(C[*:1])cc(C[*:3])cc1C[*:2]
# Target: T1, Biotinylated hPK (Homo sapiens, UniProt P03952)
# T1 construct: IHPKA, from human plasma; purchased Innovative Research, Novi, MI, USA IHPKA; host or cells: human plasma
# Assay: Phage selections, abundance of sequences in selection outputs
# Type: binding
# Conditions: randomised WPAR motif at positions 2, 3, 4 & 5 within the 06-34-03 sequence
# Procedure: Glycerol stocks of phage libraries were diluted to OD600=0.1 in 500 ml 2YT/chloramphenicol (30 μg/ml) cultures and phage were produced at 30° C. over night (15-16 hrs). Phage were purified and chemically modified as described in Heinis, et al., Nat Chem Biol 2009, 5 (7), 502-7 Biotinylated hPK (3 μg) (IHPKA, from human plasma, Innovative Research, Novi, MI, USA) was incubated with 50 μl pre-washed magnetic streptavidin beads (Dynal, M-280 from Invitrogen, Paisley, UK) for 10 minutes at RT. […] Blocked beads were then mixed with the blocked chemically modified phage and incubated for 30 minutes on a rotating wheel at RT. Beads were washed 8 times with washing buffer containing 0.1% Tween 20 and twice with washing buffer before incubation with 100 μl of 50 mM glycine, pH 2.2 for 5 minutes. Eluted phage were transferred to 50 μl of 1 M Tris-Cl, pH 8 for neutralization, incubated with 30 ml TG1 cells at OD600=0.4 for 90 minutes at 37° C. and the cells were plated on large 2YT/chloramphenicol plates. One or two additional rounds of panning were performed using the same procedures. In the second round of selection, neutravidin-coated magnetic beads were used to prevent the enrichment of streptavidin-specific peptides. The neutravidin beads were prepared by reacting 0.8 mg neutravidin (Pierce, Rockford, IL, USA) with 0.5 ml tosyl-activated magnetic beads (Dynal, M-280 from Invitrogen, Paisley, UK) according to the supplier's instructions.
# (§1) The WPAR (SEQ ID NO: 18) motif identified from Example 1 was analysed in the context of the 06-34-03 peptide, in order to identify alternatives or improvements to the WPAR (SEQ ID NO: 18) motif. A library was constructed where positions 1, 6, 7, 8, 9 &10 of 06-34-03 were fixed and positions 2, 3, 4 & 5 were randomised (see ‘Randomisation of peptide domains—Library construction’ in Methods above). Selections against human plasma Kallikrein were performed at a variety of stringencies (see Phage selections' in Methods above). All output sequences were identified and analysed for target binding (see ‘Randomisation of peptide domains—Assay of binding of individual clones’ in Methods above). Table 17 lists each unique sequence, its relative abundance in the selection output (frequency), and a rank number according to target binding strength.
# T1 sequence (P03952 20-638): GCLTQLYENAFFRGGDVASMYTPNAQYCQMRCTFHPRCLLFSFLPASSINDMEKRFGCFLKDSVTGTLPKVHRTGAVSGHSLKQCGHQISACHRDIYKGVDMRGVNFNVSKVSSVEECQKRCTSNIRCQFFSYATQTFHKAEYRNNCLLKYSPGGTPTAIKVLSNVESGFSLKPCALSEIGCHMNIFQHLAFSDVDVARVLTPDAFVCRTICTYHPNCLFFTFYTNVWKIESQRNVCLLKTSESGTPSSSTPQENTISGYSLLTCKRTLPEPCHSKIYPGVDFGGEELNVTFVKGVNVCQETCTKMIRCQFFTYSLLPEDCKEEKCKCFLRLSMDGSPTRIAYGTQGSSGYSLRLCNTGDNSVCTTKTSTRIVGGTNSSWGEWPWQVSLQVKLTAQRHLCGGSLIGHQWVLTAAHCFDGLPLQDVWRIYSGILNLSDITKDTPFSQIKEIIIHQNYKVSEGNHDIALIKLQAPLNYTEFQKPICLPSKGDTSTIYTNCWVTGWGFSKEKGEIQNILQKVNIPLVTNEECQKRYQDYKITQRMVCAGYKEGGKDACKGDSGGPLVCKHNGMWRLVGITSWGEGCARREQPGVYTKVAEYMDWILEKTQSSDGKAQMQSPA
row,Compound,Frequency (relative abundance in the total selection outputs)
1,"SEQ ID NO: 74 (CSWPSRCTHQDLC; Synthetic sequence Kallikrein binder identified from selections using a randomised WPAR motif at positions 2, 3, 4 & 5 within the 06-34-03 sequence of PCT/EP2012/069898 (SEQ ID NO 58))",51
2,"SEQ ID NO: 109 (CSFMYKCTHQDLC; Synthetic sequence Kallikrein binder identified from selections using a randomised WPAR motif at positions 2, 3, 4 & 5 within the 06-34-03 sequence of PCT/EP2012/069898 (SEQ ID NO 58))",1

# Target: biotinylated human plasma Kallikrein (Homo sapiens, UniProt P03952)
# Assay: Phage binding assay of individual clones, randomisation of peptide domains
# Conditions: not given
# Excerpt: Library construction: Small phage libraries were generated according to the methods of Heinis et al as described in ‘Cloning of phage libraries’ above. The sficx3ba primer was modified such that the bicycle-encoding portion was based on a parent 5×5 bicycle (5×5: two 5-residue loops) DNA sequence with only 4-6 codons randomized to NNS. The randomized codons were those encoding the peptide domain/motif of interest.
# Assay of binding of individual clones: Library transformant colonies, or selection output colonies, were picked and grown as individual cultures in 2TY broth containing selective antibiotic. The picked colonies were DNA-sequenced using a QIAgen PyroMark Q96 DNA sequencer to reveal the amino-acid substitution present in each clone, and were assayed for human plasma Kallikrein binding as follows. The phage-containing supernatant was harvested from the culture and phage were cyclised with tris bromomethyl benzene(TBMB) based on the methods of Heinis et al (Nature Chemical Biology vol. 5 pp 502-507 (2009)). The purified phage from this process were assayed for binding to biotinylated human plasma Kallikrein using a homogeneous plate-based binding assay; assay read-out measured on a BMG Labtech Pherastar FS plate reader. The quantitative binding data from duplicate assay samples was averaged (mean) and expressed as signal:background. Assay data shown is representative of at least 2 independent experiments. The assay data was correlated with the peptide sequences.
# as §1
# Selections against human plasma Kallikrein were performed with this library in order to study the non-WPAR (SEQ ID NO: 18) determinants of Kallikrein binding, and to isolate the optimal WPAR (SEQ ID NO: 18)-containing peptide sequence. Over 150 selection output sequences were isolated and screened for binding to human plasma Kallikrein (as described in Methods above). The sequences were ranked in order of Kallikrein binding and the top 50 sequences were aligned in Table 19. […]
# Chain of biotinylated human plasma Kallikrein (P03952 20-638): as above
row,Compound,Kallikrein binding in target binding assay
1,CC(C)C[C@@H]1NC(=O)[C@H](CC(=O)O)NC(=O)[C@H](CCC(N)=O)NC(=O)[C@H](Cc2c[nH]cn2)NC(=O)[C@H]([C@@H](C)O)NC(=O)[C@@H]2CSCc3cc(cc(c3)CSC[C@@H](C(=O)N[C@@H](C)C(N)=O)NC1=O)CSC[C@H](NC(=O)[C@H](C)N)C(=O)N[C@@H](CO)C(=O)N[C@@H](Cc1c[nH]c3ccccc13)C(=O)N1CCC[C@H]1C(=O)N[C@@H](C)C(=O)N[C@@H](CCCNC(=N)N)C(=O)N2 [Peptide 06-34-03] (H-ACSWPARCTHQDLCA-NH2; linker 2-8-14 via TBMB; N-terminus and C-terminus assumed),one of the best sequences

# Same assay, conditions: WPAR domain fixed, positions 1, 6, 7, 8, 9 & 10 randomised; top 50
row,Compound,Rank (sequences ranked according to Kallikrein binding)
1,SEQ ID NO: 159 (CRWPARCTHTDLC; Synthetic sequence Kallikrein binder containing a WPAR motif),46
2,SEQ ID NO: 162 (CSWPARCLHDDLC; Synthetic sequence Kallikrein binder containing a WPAR motif),49
3,SEQ ID NO: 132 (CQWPARCTHSDLC; Synthetic sequence Kallikrein binder containing a WPAR motif),19
4,SEQ ID NO: 121 (CQWPARCLHTDLC; Synthetic sequence Kallikrein binder containing a WPAR motif),8
5,SEQ ID NO: 208 (CSWPARCTHQDLC; Synthetic sequence 06-34-03),2
6,SEQ ID NO: 152 (CDWPARCMHQEFC; Synthetic sequence Kallikrein binder containing a WPAR motif),39
7,SEQ ID NO: 146 (CSWPARCLHTELC; Synthetic sequence Kallikrein binder containing a WPAR motif),33
8,SEQ ID NO: 124 (CHWPARCTHQELC; Synthetic sequence Kallikrein binder containing a WPAR motif),11
9,SEQ ID NO: 150 (CAWPARCLHADMC; Synthetic sequence Kallikrein binder containing a WPAR motif),37
10,SEQ ID NO: 131 (CQWPARCMHQDMC; Synthetic sequence Kallikrein binder containing a WPAR motif),18
11,SEQ ID NO: 136 (CTWPARCLHQDLC; Synthetic sequence Kallikrein binder containing a WPAR motif),23
12,SEQ ID NO: 145 (CAWPARCMHDDLC; Synthetic sequence Kallikrein binder containing a WPAR motif),32
13,SEQ ID NO: 119 (CSWPARCTHDDLC; Synthetic sequence Kallikrein binder containing a WPAR motif),6
14,SEQ ID NO: 151 (CAWPARCLHQDWC; Synthetic sequence Kallikrein binder containing a WPAR motif),38
15,SEQ ID NO: 138 (CVWPARCTHQDLC; Synthetic sequence Kallikrein binder containing a WPAR motif),25
16,SEQ ID NO: 139 (CTWPARCTHADLC; Synthetic sequence Kallikrein binder containing a WPAR motif),26
17,SEQ ID NO: 122 (CLWPARCTHQDLC; Synthetic sequence Kallikrein binder containing a WPAR motif),9
18,SEQ ID NO: 158 (CSWPARCTHAEMC; Synthetic sequence Kallikrein binder containing a WPAR motif),45
19,SEQ ID NO: 141 (CPWPARCTHTDLC; Synthetic sequence Kallikrein binder containing a WPAR motif),28
20,SEQ ID NO: 142 (CAWPARCTHYDLC; Synthetic sequence Kallikrein binder containing a WPAR motif),29
21,SEQ ID NO: 160 (CTWPARCTHQAFC; Synthetic sequence Kallikrein binder containing a WPAR motif),47
22,SEQ ID NO: 163 (CPWPARCLHTDLC; Synthetic sequence Kallikrein binder containing a WPAR motif),50
23,SEQ ID NO: 148 (CTWPARCTHTDMC; Synthetic sequence Kallikrein binder containing a WPAR motif),35
24,SEQ ID NO: 133 (CLWPARCTHADLC; Synthetic sequence Kallikrein binder containing a WPAR motif),20
25,SEQ ID NO: 126 (CSWPARCLHTDLC; Synthetic sequence Kallikrein binder containing a WPAR motif),13
26,SEQ ID NO: 140 (CHWPARCMHQDLC; Synthetic sequence Kallikrein binder containing a WPAR motif),27
27,SEQ ID NO: 130 (CAWPARCTHADLC; Synthetic sequence Kallikrein binder containing a WPAR motif),17
28,SEQ ID NO: 135 (CQWPARCMHQELC; Synthetic sequence Kallikrein binder containing a WPAR motif),22
29,SEQ ID NO: 118 (CSWPARCTHADLC; Synthetic sequence Kallikrein binder containing a WPAR motif),5
